What was measured:
[1] = molecular target: human insulin receptor, isoform B (holoreceptor) (human) (UniProt P06213); test: radioligand binding; scintillation proximity assay (SPA): competition of [125I]TyrA14-labelled insulin binding to solubilized holoreceptor, with IR-specific antibody 83-7; analogues taken directly from yeast supernatant after conversion; four-parameter logistic model; affinity relative to human insulin within the same plate [IC50(insulin)/IC50(analogue) x 100%]; near physiological pH
[2] = molecular target: human insulin receptor, isoform A (holoreceptor) (human) (UniProt P06213); test: as above
[3] = molecular target: human insulin receptor, isoform B (holoreceptor) (human) (UniProt P06213); test: radioligand binding; scintillation proximity assay (SPA): competition of [125I]TyrA14-labelled insulin binding to solubilized holoreceptor, with IR-specific antibody 83-7; purified ligand (human insulin standard, tracer, purified unglycosylated [A8H, B25N]); near physiological pH

Substance	relative affinity (IC50 insulin/IC50 analogue x 100%) (% of human insulin) [1]	relative affinity (IC50 insulin/IC50 analogue x 100%) (% of human insulin) [2]	fold difference in relative binding potency, IR-B over IR-A [3]
[A8H, B25A, B27E] desB30 insulin analogue (ligand)	24	10	–
[A8H, B25H, B27D] desB30 insulin analogue (ligand)	82	43	–
[A8H, B25H, B27E] desB30 insulin analogue (ligand)	140	67	–
[A8H, B25N, B27D] desB30 insulin analogue (ligand)	38	10	–
[A8H, B25N, B27E] desB30 insulin analogue (ligand)	57	15	–
[A8H, B25N] desB30 insulin analogue (ligand)	44	22	2 fold
[A8H, B25Y, B27E] desB30 insulin analogue (ligand)	459	714	–
[A8H] desB30 insulin analogue (ligand)	308	308	–
[B25N] desB30 insulin analogue (ligand)	8	4	–

From publication PMC3098868
